Measurements from patent US20100035361A1 (published 2010).
Substitutions are numbered along the chain they refer to. Non-standard residues stand in square brackets, D forms with d. No end group written: not given here. Aib = CC(C)(N)C(=O)O

Tests used:
[1] = target: T1, extracellular domain of the Her2/neu antigen as a conjugate with the Fc region of human IgG (Fc-Her2), R&D … (human, UniProt P04626 23-652); assay: SPR (Biacore) relative binding, about 5 ug/ml peptide
T1 construct: extracellular domain; Bought reagent; not shown: Fc region of human IgG

[2] = target: T1, extracellular domain of the Her2/neu …; assay: binding analysis (method not given; SPR per Example 2)

B1: anti-Her2 two helix binder (SEQ ID NO. 23) (designed binder)
chain: VENKCNKEMRNAYWEIALLPNLNNQQKRAFIRSLYDDPX
modifications: C^1 = hindered cysteine (penicillamine) at 39, disulfide linkage to natural Cys 5
B1: binds [1].

B2: anti-Her2 two helix binder (SEQ ID NO. 20) (designed binder)
chain: B1 chain with C5X, X39C
modifications: C^2 = extended cysteine (homocysteine) at 5, disulfide linkage to natural Cys 39
B2: binds [1].

B3: anti-Her2 two helix binder (SEQ ID NO. 27), peptide with Ala29Aib (designed binder)
chain: B1 chain with A29X, X39C
modifications: X = alpha amino isobutyric acid (Aib) at 29
notes: Cys at 5 and 39
B3: binds [1].

B4: anti-Her2 two helix binder (SEQ ID NO. 19) (designed binder)
chain: B1 chain with C5X, X39C
modifications: C^1 = hindered cysteine (penicillamine) at 5, disulfide linkage to natural Cys 39
B4: binds [1].

B5: anti-Her2 two helix binder (SEQ ID NO. 12), peptide with a covalent bridge between two E^1 residues (designed binder)
chain: B1 chain with E8X, E15X, X39C
modifications: E^1 = O-allyl glutamic acid at 8 and 15 joined by a covalent bridge (ring closing metathesis)
notes: Cys at 5 and 39
B5: binds [1].

B6: anti-Her2 two helix binder (SEQ ID NO. 24) (designed binder)
chain: VENKCNK[Aib]MRN[Aib]YWE[Aib]ALLPNLNNQQKRAFIRSLYDDPC-NH2
modifications: cysteine pairing not given here
notes: Cys at 5 and 39
B6: no binding [2].

B7: anti-Her2 two helix binder (SEQ ID NO. 26) (designed binder)
chain: VENKCNK[Aib]MRN[Aib]YWE[Aib]ALLPNLNNQ[Aib]KRA[Aib]IRS[Aib]YDDPC-NH2
modifications: cysteine pairing not given here
notes: Cys at 5 and 39
B7: no binding [2].

B8: anti-Her2 two helix binder (SEQ ID NO. 25) (designed binder)
chain: VENKCNKEMRNAYWEIALLPNLNNQ[Aib]KRA[Aib]IRS[Aib]YDDPC-NH2
modifications: cysteine pairing not given here
notes: Cys at 5 and 39
B8: no binding [2].
